# Results: publication PMC3143299 (Journal of molecular biology, 2011)
# Where “and” joins values, the source holds several entries; their conditions need not be identical. Equal entries are not always repeated.
# How the values were obtained:
# [1] = target: the molecule itself; assay: cross-linking
# [2] = target: actin purified from rabbit skeletal muscle (F-actin) (rabbit, UniProt P68135 1-377); assay: co-sedimentation
binder,measurement,setting,value
recombinant full-length human FRG1 (His-tagged) (natural protein) not shown,stoichiometry N,[1],2 and 4
same,Kd,[2],160 ± 30 nM
same,stoichiometry N,[2],2 FRG1 per actin monomer
